Laboratory results published in the DeepSol protein solubility set.

Experiment: soluble on expression in E. coli; label from the status in PepcDB or PDB records

| Sequence | soluble on expression in E. coli |
| --- | --- |
| MLSPQTTQVAIIGAGPSGSIAAALLNKHNINCIILEKSTFPRFSIGESLLPACMESIKHAGMLNAVEDACFQFKDGAAFHCNGTFTSFDFTDKFTDGAGTTFQVQRGNFDKVLADCAKEQGVEIRYQHEITDVDVNAEKPLLSVLDENGTPYQIQADFILDASGFGRVLPKLLELEEPSCLPPRRAIFTHIKDNITDESYDRNKILVSVHPTNTQVWYWLIPFSNGTCSFGVVGEPEFFDAYSEDKVTALKQLAEEESNLKHLLNQAEYPNPCGEIMGYSANVSKLFDKNFALLGNAGEFLDPVFSSGVTIAMKSAELAADLLIKQFNQEDVNWQQDYSDKLMKGVNAFRCYVEGWYEGTFQDVIFHENPNPKIKQMICAILAGYAWDESNPFVAEPERRLKVVAELCKPLEHHHHHH | not soluble |
| MLSVFPLAGMSLASLHYSTHRVDQTQVYMVAAPMADYRVVMTEPAASGQDTYLETTAAFARRTGAVAAMNTNFFRWLNAQSLRSFQDYQKWIMGESNPEGISYRALRQTCLSGRGTIPAGVAGAYIVNGRVVRPYEGGYSGIVNFPAQGGIEFYRGRLPEQPFNVVSGSQQLLDGGRKLPVDGSDRTSPKAILGRRGNEYVFVVSDGRGNGGSPGLSFLQLQDFLLQQGVTEATAMDGGESATLVVEGQVKNHPRDRYCELARWLPAPALTLINLEEEAQETAMAMGRSLRPVGANIGLVPRHRPPAFLSFAFWEFLQQRLLARLRAWRDAVLEHHHHHH | not soluble |
| MLSVIIITKNEEANIRRCLESVHFADEIIVLDSGSTDNTLAIAREYTDKVFSTDWQGYGIQKDRALQKAQGDWVLNLDADESVSSELRQEILQAISSDTADAFRIPIQMIFYNQVLKYSGSPKRHIRLFKRENASYSKDIVHEKVLIPVNARVGKLKKPIWHHSFSDVHHVLYKLNKYSSYSAKIRIESNEKVGLVKTFFSALWMFVRCLFLQKGFLDGRAGFLFAVFGAQGAFYRGVKQIYKDRDINKLPSVNHIKEELEHHHHHH | soluble |
| MLTEIGKIIRQRRQQHGITIEQLAEQSNVSISLISRLERGKVDNIKLQSLTAIAETLNLKIADFFRDELLQSPNVVALLDYLSDLPAHQREELAGTLLKLLRLSKS | not soluble |
| MLTIAHRLQRESISSGRHSSRISAVFSSPIRASSESRSQHAASSSSSIVSRPESVDEDEEEDGVWPSVTSGGVLVGCACSNSSLTRNESIVVSEGSQALYIASAATAMNGDSVRRRGGDAPDDDEAAGAAPVPAEECNLDALFERFFGDGGADAIRFEPMLPRVYELTLPSIDSRLNFINVGRRHAAFLRHVYGGCDRCEHAAVLNEKMKLFTAVITKLLDVNGILERRETTD | not soluble |
| MLTNQELTAKVKEISLTYFKQSFDHEAKWNQRLRTTGGRFFPKDLHLDFNPKMAELKDFEGVILHELTHYHLYRSKRGYKHRDADFKRLLSQVGGLRYAPSVIDKKIKYYYSCQNCGQLYPRQRKIDTKKYRCGKCRGKLILKTSGNLEHHHHHH | soluble |
| MLTRLAVEAAEQARLAAEVEAQRIAAETAEHARVVAEAEAKRVADEQALFAAEAEAHRITAEAAEQARMEAEAQAQRDADEHARVTAEAQALEAGKTLRLPEAGTPQLGAVAGVISVTAGSGLFLDATIQAAIEILAALVGTAVSSTTAVGIGTLLYSPSLGNGELPGRMLDLPARVLMPDLPDALNDVAATGGTVDMPYRIYGDQSKYSVVATQPEGGFSPKVPVRALILDPVANAYTFTTSDTPPITLTFPIAAPENSSTTTVAQPIETPAYTGITLEPIEVKAEPLPATSPLDIRDAIYVYPVNSGLPPVYVVFSSPYEGATTKGEHSGRMYDPDNAGGPTQNLDWTTASVTQNGIDLVKLHTGRFEPSDANAVMIDRLEKILRSELSMTDTDKRFYTHELRELERYRALGVADGVEGEVWNNAHTATLEDYKLKDSSESFYTPEAILEHHHHHH | soluble |
| MLTSFGKTLRKLRIDHSERLLDMADKPGVSVAFLSSVEIGKKSVPVGMEEKIIEFYSLDKAMASLLKKEADACVERTSQSNLLIHLVVKLLACFLEI | not soluble |
| MLTSGETVNVVLDFTKCTSTDDQKKPGMMRGDLRISAFLIRPDNSISFSDEHFTITTMDKEPIYQFLRYSLKPDETASFTMTTLSMPEKAHKGEVIAYNCKFATALEHHHHHH | not soluble |
| MLVRKVCQNFFQNALAPFHKYRQSALMDATVALINGASLTLTSIGRFLPGQAQVKNKIKRVDRLLGNESLHRDIPLIFNNIIAMLTRKLSLCVVAVDWSGYHSHEYHILRASLICDGRSIPLLSQIVPSAEQQSEQIHKTFLNALARAVNPDARVILEHHHHHH | not soluble |
| MLVRLGYVAMTMNLKDSSPSGTVTVKTLAGLNEDETRLNKLRKVTAANLHNTLRILRYNKAYNISVYRFTSKLVPLATHPMVSHWDYVGEFRNEFKSLGDFVKENNFRVSAHPDHYTLLNSPSKEVFEASVRDLDYHVKLFEAMGLEDYKYKLVMHIGGLYKNKQTSVERFKENYAILPDRIRKRLIFENDDKIYTARDVLDICKELKVPMVLDVHHHNCVNNGERLEDMLKEIFDTWKDEYFPPKIHFSTPKSKENFRSHADEIDVNEFYRFLQIAKKLKKDFDVMIEAKNKDNALFKLSRELKTFDDIRWIDEGHFEIR | not soluble |
| MLVVPAIDLFRGKVARMIKGRKENTIFYEKDPVELVEKLIEEGFTLIHVVDLSNAIENSGENLPVLEKLSEFAEHIQIGGGIRSLDYAEKLRKLGYRRQIVSSKVLEDPSFLKSLREIDVEPVFSLDTRGGRVAFKGWLAEEEIDPVSLLKRLKEYGLEEIVHTEIEKDGTLQEHDFSLTKKIAIEAEVKVLAAGGISSENSLKTAQKVHTETNGLLKGVIVGRAFLEGILTVEVMKRYAR | soluble |
| MLWNVDLLKTLNIMYNKILFMNNSFFGRFKKNDNQVIEEQPPVWEDRIFWVETLQKIAFPVLNNLKKESLKKNMSIESFSSESNKFAHLGAFSNVFNGIAPWLELGPDESEEGKIREKYIVLTLKAISNAVNPNSKDYILFTEPKQSLMSMALFAQGLLRSKTQIWNNLPMDVQARVIYELKNTRIIAPFENHWLLFTSMIEATLLEFTGECDRERLTYSIRKFRDEWYLGDAIYADGPEFDVNYYNSIFIHPMLNDILKVMRKYGINEGELLDVQLMRSSRYASQLERIISPEGTYPLLGKSMAYRTGIFHLLAQAALFKILPRNMETSQVRSALTKVLRTQFGGHQNFDNKGWLTIGLNGCQAEIAEKDINTGSLYGCCAIFLPLGLSFNDSFWVGPFEEWTTLKAWNGNPVEPDQSIDFLEHHHHHH | not soluble |
| MLYSSNAILLTVICYELPLSERIRMLLRLEDLFDKIDFFSARDTSFEHHAVLVALFEILDVTSRSDLKSDLLQELDKQRTMLEGLRSNPEVSEKALDHILQDIRAAFRGLLDIPGRIGGHLRDDEWLMSVKQRMSIPGAACEFDLPAYHYWLNLAPEIRREDLKDWITPFTPIRSGINIVLNMLRNSGKNCCYTAVQGLFQQAGSEHQAHLLRLHISSEFPCVPEISANKYALNIRFVPWRSDHKTEVYEEDIPFELTFCSL | not soluble |
| MMAFAPPKNTDGPKMQTKMSTWTPLNHQLLNDRVFEERRALLGKWFDKWTDSQRRRILTGLLERCSLSQQKFCCRKLQEKIPAEALDFTTKLPRVLSLYIFSFLDPRSLCRCAQVCWHWKNLAELDQLWMLKCLRFNWYINFSPTPFEQGIWKKHYIQMVKELHITKPKTPPKDGFVIADVQLVTSNSPEEKQSPLSAFRSSSSLRKKNNSGEKALPPWRSSDKHPTDIIRFNYLDNRDPMETVQQGRRKRNQMTPDFSRQSHDKKNKLQDRTRLRKAQSMMSRRNPFPLCP | not soluble |
| MMCGGRGTRLDAAAEKPLFEVGGRAMVDHVRAALEAAGRIDTTHAAVSPHAPDTAAHLAATPLSLIETPGDGYVADLTAALDAVGTPVLTVAADLPLLAPAVVDTVVAAADGATTSACVPRALKHELGVSTDADADAWVPTGVNVVGGGDTEATHRSFDARLAVNVNHRSDAAVAARLLAATDRRNHPRLEHHHHHH | not soluble |
| MMDLHTHTVYSDGIGLIRDNVAWAEKRGLKIVGISDHIHFFTPSRFSAYINEINVIKEESEIVVLAGIEANILENGPDITDEFRKKLDYAIASVHEWFGRNGTHEYINYVKKAIMDDNVDIIGHFGNSFPWIGYPTREEIDEILDLAEAYGKAFEISARYKVPDLEFIRECVKRGIKLSLATDAHRPEDVGKVSWSLKMLEKAGGTKEDLIFSEYL | soluble |
| MMEEYVVIGKVLDTFGLEGELKVRPYAPPEVFENLEKVYLKRKGGDWVPFEVEWVDFIDDKVIIKFKGYDSIDEVEQFKGAKLFLPKEELPELGEEEYYAYELVGMEVETDKGKKLGKVERVQDMGPYDALVLDKENLLVPFVSDIVLKVDKENKKIIVKEELLPVLEHHHHHH | soluble |
| MMGRGKLILIEGLDRTGKTTQCNILYKKLQPNCKLLKFPERSTRIGGLINEYLTDDSFQLSDQAIHLLFSANRWEIVDKIKKDLLEGKNIVMDRYVYSGVAYSAAKGTNGMDLDWCLQPDVGLLKPDLTLFLSTQDVDNNAEKSGFGDERYETVKFQEKVKQTFMKLLDKEIRKGDESITIVDVTNKGIQEVEALIWQIVEPVLSTHIDHDKFSFF | soluble |
| MMGSAYWEKLVPQINPPKVPSAVEGLGIPASVVENLVLKHLAAYPKCDLVELTQRLCVVSNIVELALAQLRKRSWVEVYQPASDKLSHSYSNVRYSLTEFGLAEADIAYRKDPYIGPVPVSLEDYWTVVEGQDLRKNPIMRADVERALSDVFGSEHLIPVLGPAINSGRAMLLYGHAGTGKSYVAAR | not soluble |
| MMITSVEKDTKNRGMLSVFIDEKYAFSIPEEDYFRLCLYDKKELSSDEIEEIKKGVSQRTAKYKAVKYLSYRYMTEAELSQKLRKDGYDEDVILNVVTELKSMGYINDLIYAQKYVYDRIKLKPKAKKMLKRELNQKGVSDEIADQVLSELDFDEDVVIERLIRKKFGKYDMKDPKIQKRIYSFLLHRGFDFENIKRVLRTITHLD | soluble |
| MMKGSRRTGNNTATTLNTPVVIHATQLPQHVSTDEVLQFLESFIDEKENIIDIDTNLSSSISQLKRIQRDFKGLPPAQDFSAAPIQV | soluble |
| MMKKMMVLYNETSGSSESKEIAERFKKAAEARGEAVILQPSNPDIDPEEMRKNAKENQVGVLVVIGGDGTIHHAVQNFKDTIRDYQIGIIPGGTVNNFARVLSIPLKEEDAFETILAGQTTPVDFGMVNQDVMISTLTIGLLADTAANVTQQEKQKYGPLAFTKQFFRLLMKKKKYKLKIDGDERRWHGKAQLLTMTMTNSAGGFTNFDANATPDDGEVHIIILPKLVFYKFVYYLPKIIRGQLNEIPGVVYFSGSQFKISGEKDKKVQTRTDGDPTDDLPIKVTVEAGGLNVFVPETSTSTKE | not soluble |
| MMKQALRVAFGFLILWASVLHAEVRIVIDSGVDSGRPIGVVPFQWAGPGAAPEDIGGIVAADLRNSGKFNPLDRARLPQQPGSAQEVQPAAWSALGIDAVVVGQVTPNPDGSYNVAYQLVDTGGAPGTVLAQNSYKVNKQWLRYAGHTASDEVFEKLTGIKGAFRTRIAYVVQTNGGQFPYELRVSDYDGYNQFVVHRSPQPLMSPAWSPDGSKLAYVTFESGRSALVIQTLANGAVRQVASFPRHNGAPAFSPDGSKLAFALSKTGSLNLYVMDLASGQIRQVTDGRSNNTEPTWFPDSQNLAFTSDQAGRPQVYKVNINGGAPQRITWEGSQNQDADVSSDGKFMVMVSSNGGQQHIAKQDLATGGVQVLSSTFLDETPSLAPNGTMVIYSSSQGMGSVLNLVSTDGRFKARLPATDGQVKFPAWSPYLLEHHHHHH | soluble |
